Experiments:
[1] = target: SpyCas9;AcrIIA2 (AcrIIA2a.1) (Streptococcus pyogenes;Listeria …, UniProt Q99ZW2;PDB:6MCB_3 1-1368;1-123, |); assay: cryo-EM
[2] = target: SpyCas9;AcrIIA2b (AcrIIA2b.3) (Streptococcus pyogenes;Listeria phage?, UniProt Q99ZW2;PDB:6MCC_3 1-1368;1-130, |); assay: cryo-EM
[3] = target: T1, AcrIIA2 (AcrIIA2a.1) (Listeria monocytogenes phage/prophage, UniProt PDB:6MCB_3 1-123); assay: size-exclusion chromatography
T1 sequence: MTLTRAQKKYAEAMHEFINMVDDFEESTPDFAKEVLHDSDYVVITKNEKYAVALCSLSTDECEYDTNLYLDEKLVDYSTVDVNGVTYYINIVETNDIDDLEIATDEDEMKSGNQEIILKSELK

B1: sgRNA (structured_RNA)
RNA: GGCGCAUAAAGAUGAGACGCGUUUUAGAGCUAUGCUGUUUUGAAAAAAACAGCAUAGCAAGUUAAAAUAAGGCUAGUCCGUUAUCAACUUGAAAAAGUGGCACCGAGUCGGUGCUU
- binding result [1]: binds
- binding result [2]: binds
- binding result [3]: no binding

Source: paper PMC6480404
